Values joined by “and” are separate entries in the source; they are usually repeats but may differ in a detail not shown here. Identical values can stand only once. Marks after values point to notes of the source that are not given here.
Columns and labels:
[1] = substrate: O=C(O)[C@H]1O[C@@H](Oc2ccc([N+](=O)[O-])cc2)[C@H](O)[C@@H](O)[C@@H]1O; test: purified protein, by the assay type; settings: other: pNPG as substrate
[2] = substrate: O=C(O)[C@H]1O[C@@H](Oc2ccc([N+](=O)[O-])cc2)[C@H](O)[C@@H](O)[C@@H]1O; test: purified protein, by the assay type; type: biochemical, Ruminococcus gnavus; settings: other: pNPG as substrate, optimal pH 6.5, apparent value estimated at low pNPG concentrations, 37.0 °C

B1: Lactobacillus rhamnosus GUS (LrGUS) (Lacticaseibacillus rhamnosus) (protein)
chain: METSLLYPVTNDQRTDQKLDGLWQFKFDEAGEGEKSGWETGFHDGVSMPVPASFNDFFTDKASREYTGDFWYSRNFFVPSAAKGKALFLRFDAVTHRATIFVNGKEIRTHEGGFLPFAADISEAVKYGAENTVVVKGNNELSREALPAGDTITLRNGKKMVRPFFDFYNYSGLNRSVHLLSLPQERVLDYTTTFALAGNDATVNYTVETNGDAPVTVSLADADGQVVATAQGKQGALQVQNAHLWQVRNAYLYTLTIQLGDDTQTPLDTYTDRIGIRTIKISGTDILVNDKPIYLKGFGRHEDSPFAGRAFDLNVEKKDFALMKWIGANSFRTSHYPYDEQVYKIADEEGFLLTDEVPAVGFKMAAAAFLGGLNQSFFKGPWLKKLHERHIDQIRDLIKRDKNHPSVLAWSLFNEPDTIDENAVPYFKQIFDESKDLDPQGRPRTFTLSEDDTIETSKVLDFPDFYMLNRYPGWYHFGGYQISDGEAGLRDEMDKWQKAGVKKPVVFTEFGADTEAGLHKLPSVMWTEEYQVEVLKMFSRVFDDYDFIKGEQVWNLADFQTVEGNMRVNGNKKGIFTRDRQPKAAAFFYHDRWNKLPLDYKAK
Question: What does the source list for B1?
Answer: Km ([1]; optimal pH 4.5, 37 °C): 1500 ± 100 µM; kcat ([1]; optimal pH 4.5, 37 °C): 10 ± 0.7 s⁻¹; kcat/Km ([1]; optimal pH 4.5, 37 °C): 6700 ± 300 M⁻¹ s⁻¹

B2: Streptococcus agalactiae GUS (SaGUS) (Streptococcus agalactiae 2603V/R) (protein)
chain: MLYPLLTKTRNTYDLGGIWNFKLGEHNPNELLPSDEVMVIPTSFNDLMVSKEKRDYIGDFWYEKVIEVPKVSEDEEMVLRFGSVTHQAKIYVDGVLVGEHKGGFTPFEVLVPECKYNNEKIKVSICANNVLDYTTLPVGNYSEIIQEDGSIKKKVRENFDFFNYAGVHRPLKLMIRPKNHIFDITITSRLSDDLQSADLHFLVETNQKVDEVRISVFDEDNKLVGETKDSRLFLSDVHLWEVLNAYLYTARVEIFVDNQLQDVYEENFGLREIEVTNGQFLLNRKPIYFKGFGKHEDTFINGRGLNEAANLMDLNLLKDMGANSFRTSHYPYSEEMMRLADRMGVLVIDEVPAVGLFQNFNASLDLSPKDNGTWNLMQTKAAHEQAIQELVKRDKNHPSVVMWVVANEPASHEAGAHDYFEPLVKLYKDLDPQKRPVTLVNILMATPDRDQVMDLVDVVCLNRYYGWYVDHGDLTNAEVGIRKELLEWQDKFPDKPIIITEYGADTLPGLHSTWNIPYTEEFQCDFYEMSHRVFDGIPNLVGEQVWNFADFETNLMILRVQGNHKGLFSRNRQPKQVVKEFKKRWMTIPHYHNKKNSVK
Question: B2 was tested. Which Km ([1]; optimal pH 6.5, 37 °C) did it give?
Answer: 170 ± 10 µM

Question: And the kcat ([1]; optimal pH 6.5, 37 °C)?
Answer: 120 s⁻¹ and 122 s⁻¹

Question: And the kcat/Km ([1]; optimal pH 6.5, 37 °C)?
Answer: 720000 ± 30000 M⁻¹ s⁻¹

B3: Bacteroides uniformis GUS (BuGUS) (Bacteroides uniformis str. 3978 T3 ii) (protein)
chain: QRQTQTINDSWKFLKGECTAAADSAFDDSKWTSIHLPHTWNTDAYTEKDYYRGTGWYRRQLTLPQGWKEKQIILRLDAAGKSATIYINGKNVGEHAGGYTACSFNITPFLSFDTPNTLAVCVDNARQDIAPISGDFTFFGGIYRDVWLTAVPNQHFNLTNHGSDGLFISTPQVSEEQATLSIRGEVKNDAPEKATLELTHTIYRPDGTLLQTLKKNIQLKAGETYAFSNEATPVLKPELWTPETPRLYRVETTLRNRKTKTLLDQSNHYTAFRWFRFDGDEGFFLNGKPYKLRGICRHQDQKPIGPALTDEMHRRDFLLMKEMGANFIRISHYPQDDALLEMCDKLGMLAWEEIPIIDIVPNTPGYGDNCERNLREMIRQHYNHPSIITWGYMNEILLVTQRKYKTEAELKPVLERTLALANRLERVLKEEDSTRISTMAFHGSNSYNETGLSKITDIVGWNLYQGWYGGDLTGFEKFLAQQHQNHPTHPMIVSEYGAGSDKRLHSLHPRAFDFSIEYQQKYLEHYLPVLEDTPYICGGTHWNFIDFSSALRDESMPRINNKGLVYADRTPKDVYHYYQAAWRKDIPVLHIASRDWTDRAGVQQGNAPVYLPVKIYTNLSEVELFIDGISLGKQKTENYTATFEVPFSNRNPFLFAQGNYQGKTVQDGLRINFTPIPACLDANNLKGLELAVNVGSQCFFTSDESQLTWLPDQPYAAGSWGYIGGKEGTAQTEIQNTADGPLFQTLRNEIEGYRFDAPQGVYEIELLFTDIFRRNAGIAYQLDRNGQQENRESTFGISINGEVVEESLSPCKESGYFRALRKKYYITNDKEYIDIRFHSTSGTCFLNGIKLRNIY
Question: For B3, which Km ([1]; optimal pH 5.5, 37 °C) is on record?
Answer: 540 ± 60 µM

Question: What about the kcat ([1]; optimal pH 5.5, 37 °C) of the same protein?
Answer: 37 ± 2 s⁻¹

Question: What about the kcat/Km ([1]; optimal pH 5.5, 37 °C) of the same protein?
Answer: 71000 ± 6000 M⁻¹ s⁻¹

B4: Faecalibacterium prausnitzii GUS (FpGUS) (Faecalibacterium duncaniae) (protein)
chain: MNRSLLYPRATTTRRLIGLDGMWRFSFDPESKGVEAGWALDLPSSLSMPVPASFCDLFTDKASREYCGDFWYETSFFVPAEWSGWDIVLRFGSVTHRARVFVNGVEVAQHEGGFLPFDATVTNIVRYNQFNKLSVLANNELSETMLPAGTTCTLADGRKIAAPYFDFYNYAGIHRPVWLMALPKERVLDYSTRYRLTETGAEIDYTVSTNGPHPVTVELYDGTTRVAESSGTTGTLVVKNARLWNVHAAYLYDLVIRIHEGSAVVDEYLDRIGIRTFEIRHGRFLLNGSPVYLRGFGRHEDADIRGRGLDLPTVKRDFELMKWIGANCFRTSHYPYAEEIYQMADEEGFLIIDEVPAVGFMQSTANFLAANQGNGRQQGFFEKETTPALLKNHKAALTDMIDRDKNHPSVIAWSLLNEPQCTSAGTEEYFKPLFELARRLDPQKRPRTYTVLMTSLPDTSKGQRFADFVSLNRYYGWYVLGGAGLADAEAAFHHEMDGWAKVLHGRPLIFTEYGTDNLSGAHKLPSVMWSAEYQNEYLEMTHAVFDHYDFVQGELVWNFADFQTTEGILRVDGNKKGIFTRQRQPKDAAYLFRKRWTTLPVDFKKRKK
Question: What does the source list for B4?
Answer: Km ([1]; optimal pH 6.0, 37 °C): 2200 ± 300 µM; kcat ([1]; optimal pH 6.0, 37 °C): 58 ± 4 s⁻¹; kcat/Km ([1]; optimal pH 6.0, 37 °C): 27000 ± 2000 M⁻¹ s⁻¹

B5: Eubacterium eligens GUS (EeGUS) (Lachnospira eligens ATCC 27750) (protein)
chain: MLYPVLTQSRLLSDLSGVWDFKLDNGKGFEEKWYEKPLKDADTMPVPASYNDLKEGTDFRDHYGWVFYQRNISVPEYVKSQRIVLRCAAVTHYAMIYLNGKLICEHKGGFLPFEVELNDDLQDGDNLLTIAVNNVIDYTTLPVGGKANMMSGMMGGMGAGASDKPQNNPNFDFFNYCGITRPVKIYTTPETYINDITVTADIDFTKEEPSAVLNYNVEIKGKDYNNITCKVELFDEEGTKLSETEGSEGTFEISNVRLWQPLNAYLYKIKVTAGQDVYTLPYGVRSVRVDGTKFLINEKPFYFKGYGKHEDTFPNGRGINLPMNTKDISIMKWQHANSFRTSHYPYSEEMMRLCDEEGIVVIDETTAVGVNLQFGGGANFGGERIGTFDKEHGVQTQEHHKDVIRDLISRDKNHACVVMWSIANEPDSAAEGAYDYFKPLYDLARELDPQKRPCTLVSVQGTTADTDCSSQLSDVICLNRYYGWYFGGPDLEVSEIGLRKELSDWGKLGKPVMFTEYGADTVSGLHDTTSVMYTEEYQVEYYEMNNKVFDEFDFVVGEQAWNFADFATSQSLLRVQGNKKGLFTRDRKPKMVAHYFRNRWSTIPEFGYKTK
Question: Which results are given for B5?
Answer: Km ([1]; optimal pH 6.5, 37 °C): 223 ± 8 µM; kcat ([1]; optimal pH 6.5, 37 °C): 120 ± 8 s⁻¹; kcat/Km ([1]; optimal pH 6.5, 37 °C): 540000 ± 20000 M⁻¹ s⁻¹

B6: Bacteroides dorei GUS (BdGUS) (Phocaeicola dorei CL02T12C06) (protein)
chain: SEISITDSWKYKAENDERFSSMDWNDSDWVTVDLPHTWNAGDVIDEQRGYRRGISWYRKKLFIPSEARDKKITLRFDGVASKADVYLNGKLLKTHLGAYTAFGVDITDICEVGKENLLAVKVDNSSSLGEILPPVSGDFSIFGGIYRRVFLQWTEKVHFVTEPYAAVPVRIQTPEVSVSEASMQIVAFLKNDFTDTKHVHVNVFLCDEMNRIVKEKQLKLKLIPGRKYPISTSVGRIENPHLWSPELPYLYTVKVQVCDAKNGEMYQEVISPVGFRWFSVDKTGFYLNGKYLKLRGAARHQDYAGLGTAIPVEMNRRDMRLLKEMGANFVRISHYPQDPEIYRACDELGLIVWSEICVVNEVRKNAAFAHNCKEMLKEMILQNYNHPSVVLWGAMNELWDYHKQAIALARELEALKKELDPYRLSCVAFHAFTWEKPYTQSSKEMFSISDVNGVNVYESWYQGDSATIAPMFDKFCSYSTAKPRFLSEFGAGSDERIHSYTPRTFDFTPEFQLDFNRRYINEMEKRPDYIGYSIWNLVDFQVDGRGDSKPNLNQKGMLTEDRRKKEIYYYCQARWSDIPMIHIAGADWTKRVEICDDSINVRKISVFSNQKTVELIHNGKSLGVREVVNGEAVFAVPFINGENLLDARSGALSDRLKIQMKLLSSRLTDSDVLLDGLCINLGQEHCYFIDPQLQEIWIPDKPYTKGSWGYMDGKPFNSWPGSSHDGVRYGVGADIKNTFLEPLFQTFLIGTTCYRLDVPDGVYEIGFYFTEPFSKDERKNIVRTGVSAEGQRVFDVSVNGEKLIDSLNLADSYGEQTAVVKTLVVNVRNHEGLEILLSPQKGQGVISGLKVKKIR
Question: How did the Km ([1]; optimal pH 6.0, 37 °C) turn out when B6 was run?
Answer: 1400 ± 100 µM

Question: And the kcat ([1]; optimal pH 6.0, 37 °C)?
Answer: 7.5 ± 0.4 s⁻¹

Question: What about the kcat/Km ([1]; optimal pH 6.0, 37 °C) of the same protein?
Answer: 5200 ± 500 M⁻¹ s⁻¹

B7: Ruminococcus gnavus GUS (RgGUS) (Mediterraneibacter gnavus) (protein)
chain: MLEYSELYPIQNGHRMMQSLDGMWKFQFDPEEIGEKSGWENGLPAPVSMPVPSSFADFFTDHKERDYCGDFWYETEFYLPAEWRNKKIWLRFGSITHRGTVYCNGMEITSHEGGFLPVLADISTVAKPGQVNQVVVKINNELNETSLPCGATKILNNGRKLAKPYFDFFNYSGLQRSVWVIALPEESVKDYSVDYELCGTDALVKYEVVTTGEHPVIVRLLDAEGELVAETEGKEGILQVANAHLWEVRNAYLYQIVILITDGNGVLDEYREKIGIRTVRIEGTQILLNDRPVYLKGFGKHEDFSILGRGFHWGIVKRDFECLKWTNANCFRTSHYPYAEEWYQFADEEGFLIIDEVPAVGMMRSTRNFVAAGSGNYTYFFEALTVPELLKSHIADTEEMITRDKNHPSVIAWSLFNEPETITDYAYEYFKEVFAAAETYDFQSRPMTGAFEKNSKPELCKCYPLCDFICLNRYYGWYISGGPEIEEAEELFRDEMDRWKAKELNVPFVFTEFGTDTMAGLHKLPSIMWSEEYQKEYLEMNFRVFDSYEFVQGELAWNFADFQTTEGIMRVDGNHKGVFTRDRQPKAAAVVFKDRWEKKNELF
Question: For B7, which Km [2] is on record?
Answer: 1.4 ± 0.2^b mM

Question: And the kcat [2]?
Answer: 2.8 ± 0.3 s⁻¹

Question: What about the kcat/Km [2] of the same protein?
Answer: 2000 ± 100 M⁻¹ s⁻¹
